Results as given in US20110009474A1, “SIRTUIN BASED METHODS AND COMPOSITIONS FOR TREATING BETA-CATENIN-RELATED CONDITIONS” (President and Fellows of Harvard College, priority 2007, published 2011).

Biological target: endogenous β-catenin (human) (UniProt P35222)
Experiment: cell-based or functional assay

Sequence of endogenous β-catenin (human) (P35222 2-781 limits assumed): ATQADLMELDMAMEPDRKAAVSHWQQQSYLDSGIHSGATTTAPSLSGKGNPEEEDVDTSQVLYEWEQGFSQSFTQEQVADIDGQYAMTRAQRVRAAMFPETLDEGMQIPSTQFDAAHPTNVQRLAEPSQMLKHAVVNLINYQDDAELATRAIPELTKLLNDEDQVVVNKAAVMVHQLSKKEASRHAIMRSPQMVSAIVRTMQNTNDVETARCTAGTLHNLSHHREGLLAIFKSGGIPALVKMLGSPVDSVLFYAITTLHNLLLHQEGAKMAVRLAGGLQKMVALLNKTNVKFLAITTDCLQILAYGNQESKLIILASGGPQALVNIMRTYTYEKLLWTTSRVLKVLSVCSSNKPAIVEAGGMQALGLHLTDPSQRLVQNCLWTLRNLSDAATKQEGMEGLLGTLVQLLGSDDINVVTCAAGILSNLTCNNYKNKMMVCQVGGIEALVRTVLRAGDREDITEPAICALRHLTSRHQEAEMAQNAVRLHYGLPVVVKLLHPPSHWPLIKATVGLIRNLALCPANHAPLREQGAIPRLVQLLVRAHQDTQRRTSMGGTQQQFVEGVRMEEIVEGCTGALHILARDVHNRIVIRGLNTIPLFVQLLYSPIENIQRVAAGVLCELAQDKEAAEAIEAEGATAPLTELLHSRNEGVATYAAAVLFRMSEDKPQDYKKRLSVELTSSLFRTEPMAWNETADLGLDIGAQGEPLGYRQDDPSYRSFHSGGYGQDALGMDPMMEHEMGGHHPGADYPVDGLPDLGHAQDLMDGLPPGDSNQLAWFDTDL

fold decrease in Super8XTopflash-Luciferase-PEST reporter activity in DLD1 cells: 2 fold
Substance: SIRT1 overexpressed from pBABE-Puro-hSir2(SIRT1) (from UniProt Q96EB6 2-747)
